In paper PMC8106883:

Target: angiotensin-converting enzyme 2 (ACE2) on transfected HEK293T cells (human) (UniProt Q9BYF1)

S1-hFc N282Q (Fc fusion)
fold binding relative to WT S1-Fc: 3 fold
